# Source: patent publication US20240279341A1 (Alector, published 2024)
# T1: human MerTK on M2c-differentiated human macrophages (human, UniProt Q12866 21-999)
# T1 sequence: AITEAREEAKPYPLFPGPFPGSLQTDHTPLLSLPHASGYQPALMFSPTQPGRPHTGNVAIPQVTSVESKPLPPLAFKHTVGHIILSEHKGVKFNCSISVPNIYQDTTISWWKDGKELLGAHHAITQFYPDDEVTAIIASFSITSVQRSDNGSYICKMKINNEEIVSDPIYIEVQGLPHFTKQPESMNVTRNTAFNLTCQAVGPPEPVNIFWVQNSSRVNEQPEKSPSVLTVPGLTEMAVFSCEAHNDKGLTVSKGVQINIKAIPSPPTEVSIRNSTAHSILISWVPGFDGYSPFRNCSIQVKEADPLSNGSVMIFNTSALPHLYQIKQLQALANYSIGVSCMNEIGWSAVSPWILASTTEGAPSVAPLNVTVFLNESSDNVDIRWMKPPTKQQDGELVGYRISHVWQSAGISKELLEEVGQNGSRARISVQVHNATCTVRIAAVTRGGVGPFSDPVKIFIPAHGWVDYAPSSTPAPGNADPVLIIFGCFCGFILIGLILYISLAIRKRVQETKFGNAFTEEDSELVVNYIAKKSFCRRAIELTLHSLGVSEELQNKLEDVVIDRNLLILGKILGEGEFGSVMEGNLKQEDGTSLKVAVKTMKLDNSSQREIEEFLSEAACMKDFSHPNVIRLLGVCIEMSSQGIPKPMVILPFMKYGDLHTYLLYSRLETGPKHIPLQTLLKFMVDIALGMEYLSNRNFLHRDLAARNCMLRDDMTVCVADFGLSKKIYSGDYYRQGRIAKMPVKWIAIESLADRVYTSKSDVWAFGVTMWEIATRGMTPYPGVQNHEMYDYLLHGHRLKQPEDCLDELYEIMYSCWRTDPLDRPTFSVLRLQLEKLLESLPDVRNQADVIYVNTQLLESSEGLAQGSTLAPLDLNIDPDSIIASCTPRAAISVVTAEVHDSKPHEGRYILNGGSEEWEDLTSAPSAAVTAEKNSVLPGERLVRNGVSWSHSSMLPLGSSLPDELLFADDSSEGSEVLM
# T2: recombinant human MerTK extracellular domain (human, UniProt Q12866 21-505)
# T2 construct: also called huMerTK; not shown: PolyHis tag or TEVS/Thrombin/murine IgG2a Fc tag (a DDDDK-tagged commercial protein is also mentioned); which form was t
# T2 sequence: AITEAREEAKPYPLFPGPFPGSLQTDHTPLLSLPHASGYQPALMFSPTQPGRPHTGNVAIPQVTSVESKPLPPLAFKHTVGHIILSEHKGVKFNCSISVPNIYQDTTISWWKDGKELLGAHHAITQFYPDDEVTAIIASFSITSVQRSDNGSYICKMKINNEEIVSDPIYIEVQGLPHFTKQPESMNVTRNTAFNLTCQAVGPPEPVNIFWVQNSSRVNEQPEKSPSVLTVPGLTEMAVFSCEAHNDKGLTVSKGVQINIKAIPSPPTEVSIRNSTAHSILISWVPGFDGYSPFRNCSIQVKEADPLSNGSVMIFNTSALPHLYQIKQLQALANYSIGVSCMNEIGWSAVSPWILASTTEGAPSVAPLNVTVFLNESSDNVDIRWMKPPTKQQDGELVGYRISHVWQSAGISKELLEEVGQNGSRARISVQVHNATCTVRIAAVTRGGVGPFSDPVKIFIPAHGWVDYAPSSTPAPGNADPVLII
# T3: recombinant cynomolgus MerTK extracellular domain (cynomolgus monkey, UniProt Q12866 21-505 (human entry))
# T3 construct: also called cynoMerTK; cyno MerTK; not shown: PolyHis tag or TEVS/Thrombin/murine IgG2a Fc tag
# T3 chain: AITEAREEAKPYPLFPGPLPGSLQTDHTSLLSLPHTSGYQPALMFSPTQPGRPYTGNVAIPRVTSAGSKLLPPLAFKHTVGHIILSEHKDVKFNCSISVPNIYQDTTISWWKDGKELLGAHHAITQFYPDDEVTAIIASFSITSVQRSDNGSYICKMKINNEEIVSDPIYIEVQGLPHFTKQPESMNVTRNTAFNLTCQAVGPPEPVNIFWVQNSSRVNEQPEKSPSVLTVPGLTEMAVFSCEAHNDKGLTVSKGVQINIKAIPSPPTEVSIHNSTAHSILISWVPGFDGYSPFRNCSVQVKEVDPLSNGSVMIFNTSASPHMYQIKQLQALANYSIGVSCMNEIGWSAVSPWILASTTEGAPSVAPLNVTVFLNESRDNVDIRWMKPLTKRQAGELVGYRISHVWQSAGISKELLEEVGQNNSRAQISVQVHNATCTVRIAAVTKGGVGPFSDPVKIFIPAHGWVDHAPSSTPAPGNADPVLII
# B1: monovalent anti-MerTK antibody MTK-33.11 (antibody, V domains shown)
# VH: QVQLVQSGAEVKKPGASVKVSCKASGYTFTSYWMHWVRQAPGQGLEWIGVIDPSDNYINYNQKFQGRVTMTRDTSTSTVYMELSSLRSEDTAVYYCAREAWTRGYFDYWGQGTLVTVSS
# VL: DIQMTQSPSSLSASVGDRVTITCQASRSVRNTVAWYQQKPGKAPKLLIYYASNRYTGVPSRFSGSGSGTDFTFTISSLQPEDIATYYCQQDYRSPFTFGQGTKLEIK
# B2: bivalent anti-MerTK antibody MTK-33.11 (full IgG) (antibody, V domains shown)
# VH: B1 VH
# VL: DIQMTQSPSSLSASVGDRVTITCQASRSVRNTVAWYQQKPGKAPKLLIYYASNRYTGVPSRFSGSGSGTDFTFTISSLQPEDIATYYCQQDYRSPFTFGQGTKLEIKR
# B3: bispecific anti-MerTK MTK-33.11:anti-PDL1 antibody (bispecific antibody, V domains shown)
# VH 1: B1 VH
# VL 1: B1 VL
# VH 2: not shown
# VL 2: not shown
# B4: monovalent anti-MerTK antibody MTK-16.2 (antibody, V domains shown)
# VH: QVQLVQSGSELKKPGASVKVSCKASGYTFTNHGMNWVRQAPGQGLEWMGWINTYTGEPTYADDFKGRFVFSLDTSVSTAYLQISSLKAEDTAVYYCARKGVTAARYFDYWGQGTLVTVSS
# VL: DIQMTQSPSSLSASVGDRVTITCRASQNVRTAVAWYQQKPGKAPKRLIYLASNRHTGVPSRFSGSGSGTEFTLTISNLQPEDFATYYCLQHWNYPLTFGGGTKLEIK
# B5: bivalent anti-MerTK antibody MTK-16.2 (full IgG) (antibody, V domains shown)
# VH: B4 VH
# VL: DIQMTQSPSSLSASVGDRVTITCRASQNVRTAVAWYQQKPGKAPKRLIYLASNRHTGVPSRFSGSGSGTEFTLTISNLQPEDFATYYCLQHWNYPLTFGGGTKLEIKR
# B6: bispecific anti-MerTK MTK-16.2:anti-PDL1 antibody (bispecific antibody, V domains shown)
# VH 1: B4 VH
# VL 1: B4 VL
# VH 2: not shown
# VL 2: not shown
# Target: T1, human MerTK on M2c-differentiated human …
# Test: cell-based or functional assay
row,Binder,Average IC50 (nM) in the presence of huGas6 (huGas6-mediated pAKT reducing activity)
1,B1,17.9 nM
2,B2,1.25 nM
3,B3,9.03 nM
4,B4,15.3 nM
5,B5,3.22 nM
6,B6,12.3 nM

# Target: T2, recombinant human MerTK extracellular …
# Test: SPR (Carterra LSA), antibody immobilized, MerTK ECD as analyte; estimate, fits not ideal for a 1:1 model
# Description: (§1) Binding kinetics of bispecific anti-MerTK:anti-PDL1 antibodies of the present disclosure to human, cyno, and murine MerTK were evaluated using a Carterra LSA instrument. […] A HC30 sensor chip (Carterra) was activated using the single channel flow cell with a 7-minute injection of a 1:1:1 mixture of 100 mM MES pH 5.5, 100 mM sulfo-NHS, 400 mM EDC (all reconstituted in MES pH 5.5; 100 μl of each mixed in vial immediately before running assay). After switching to the multi-channel array flow cell, the antibodies were injected over the activated chip in a 96-spot array for 15 minutes. A duplicate injection of the antibodies on a second block of the chip was spotted as before. The remaining unconjugated active groups on the chip were then blocked by injecting 1M Ethanolamine pH 8.5 (Carterra) for 7 minutes using the single channel flow cell.
# (§2) After priming with running buffer (HBS-TE, Carterra) with 0.5 mg/ml BSA (Sigma), the immobilized anti-MerTK antibodies were tested for their ability to bind to several forms of recombinant MerTK extracellular domain, including that of human, cynomolgus, and mouse orthologs as described above. Estimates of affinity were generated by injecting each analyte over the entire antibody array using the single channel flow cell. […] Dissociation was followed for 300 seconds before regenerating after each injection with 2×30 seconds of 10 mM Glycine pH2.5. Three buffer blanks were run between each series (one species per series). After all concentrations of all three species of MerTK were injected, a duplicate set of injections was performed, so that each concentration for all three species was injected in widely spaced duplicates. Data were processed and analyzed using NextGenKIT high-throughput kinetics analysis software (Carterra).
row,Binder,Kd
1,B1,2 nM
2,B2,2 nM
3,B3,2 nM
4,B4,50 nM
5,B5,50 nM
6,B6,30 nM

# Target: T3, recombinant cynomolgus MerTK …
# Test: as above
# Description: as §1, §2
row,Binder,Kd
1,B1,3 nM
2,B2,2 nM
3,B3,2 nM
4,B4,60 nM
5,B5,60 nM
6,B6,30 nM
